Assay results taken from article PMC9040003 (Science (New York, N.Y.), 2022).

What was measured:
Type in all cases: binding, Arabidopsis thaliana
[1] = tested on: FER ectodomain (6×His-tagged); settings: 6×His-tagged ectodomain purified from insect cells; biotinylated peptide
[2] = tested on: ANJ ectodomain (6×His-tagged); settings: 6×His-tagged ectodomain purified from insect cells; biotinylated peptide
[3] = tested on: HERK1 ectodomain (6×His-tagged); settings: 6×His-tagged ectodomain purified from insect cells; biotinylated peptide
[4] = tested on: FER ectodomain (MBP-tagged); settings: MBP-tagged ectodomain purified from Escherichia coli; biotinylated peptide
[5] = tested on: ANJ ectodomain (MBP-tagged); settings: MBP-tagged ectodomain purified from Escherichia coli; biotinylated peptide
[6] = tested on: HERK1 ectodomain (MBP-tagged); settings: MBP-tagged ectodomain purified from Escherichia coli; biotinylated peptide

binding to FER ectodomain (pull-down) [1]: bind
binding to ANJ ectodomain (pull-down) [2]: bind
binding to HERK1 ectodomain (pull-down) [3]: bind
binding to FER ectodomain (pull-down) [4]: bind
binding to ANJ ectodomain (pull-down) [5]: bind
binding to HERK1 ectodomain (pull-down) [6]: bind
B1: RALF16: RALF (rapid alkalinization factor) peptide, pollen tube–specific, Arabidopsis (peptide)
peptide: RTLGYGSIKGDRIPACGYKNPNSCVKQPVNHYHRGCEKITRCARDAARYTESFNVDDDESPIINLH
modifications: also: biotin, position not given here
